± gives the uncertainty stated by the source.
Experiment: self-splicing fitness, log relative to wild type (ln ratio); higher = more splicing; Tetrahymena group I intron in knt gene, E. coli kanamycin selection, DiMSum; sequences stand for … in CUCUCU…GGAGGGAAAAGUUAUCAGGCAUGCACCUGGUAGCUAGUCUUUAAACCAAUAGAUUGCAUCGGUUUAAAAGGCAAGACCGUCAAAUUGCGGGAAAGGGGUCAACAGCCGUUCAGUACCAAGUCUCAGGGGAAACUUUGAGAUGGCCUUGCAAAGGGUAUGGUAAUAAGCUGACGGACAUGGUCCUAACCACGCAGCCAAGUCCUAAGUCAACAGAUCUUCUGUUGAUAUGGAUGCAGUUCACAGACUAAAUGUCGGUCGGGGAAGAUGUAUUCUUCUCAUAAGAUAUAGUCGGACCUCUCCUUAAUGGGAGCUAGCGGAUGAAGUGAUGCAACACUGGAGCCGCUGGGAACUAAUUUGUAUGCGAAAGUAUAUUGAUUAGUUUUGGAGUACUCGUGGUCG
In short: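 Fitness was computed with DiMSum as the error-weighted combination of replicate fold changes, kanamycin versus none, each normalised to wild type. The library randomised all eight intron nucleotides of the P1ex region, with the intron placed in the knt kanamycin-resistance gene on pET-22b(+) in E. coli BL21(DE3). Six replicate transformations were grown overnight at 37°C or 30°C on LB agar with or without 25 μg/mL kanamycin, plus 100 μg/mL carbenicillin, 50 μM IPTG and 0.2% rhamnose. Pooled colonies were amplicon-sequenced on an Illumina HiSeq 2500.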

Row | Sequence | self-splicing fitness (ln) (30 °C) | self-splicing fitness (ln) (37 °C)
1 | CUCCAGCAAUAUUACGGCUG | -2.12 ± 0.22 | -2.99 ± 0.4
2 | GUACAGCAAUAUUACGUGGG | -3.76 ± 0.13 | -3.18 ± 0.14
3 | GCAUAGCAAUAUUACGGAUA | -1.81 ± 0.22 | -0.643 ± 0.18
4 | GCAGAGCAAUAUUACGCUUG | -3.5 ± 0.21 | -2.83 ± 0.31
5 | UUAGAGCAAUAUUACGGUCA | -1.7 ± 0.15 | -1.34 ± 0.14
6 | GAACAGCAAUAUUACGAGCG | -1.94 ± 0.089 | -0.559 ± 0.1
7 | AGAGAGCAAUAUUACGUACC | -1.69 ± 0.28 | -0.0438 ± 0.38
8 | UGGAAGCAAUAUUACGCUGA |  | -0.713 ± 0.4
9 | CUGUAGCAAUAUUACGGCAA | -3.11 ± 0.39 | 
10 | AACAAGCAAUAUUACGUGUG | -1.69 ± 0.043 | -0.657 ± 0.05
11 | CCAAAGCAAUAUUACGUUGC | -3.4 ± 0.15 | -2.12 ± 0.17
12 | GUUAAGCAAUAUUACGAACG | -2.01 ± 0.28 | -1.16 ± 0.31
13 | AUGCAGCAAUAUUACGCACA | -0.62 ± 0.11 | 0.467 ± 0.13
14 | UGGGAGCAAUAUUACGAGUA | -3.85 ± 0.43 | -2.59 ± 0.44
15 | CUGAAGCAAUAUUACGCUCA | -3.73 ± 0.37 | -0.356 ± 0.22
16 | GUGAAGCAAUAUUACGUUAA | -2.09 ± 0.12 | -1.74 ± 0.14
17 | CGGGAGCAAUAUUACGUUGA | -3.82 ± 0.39 | -2 ± 0.23
18 | AGAUAGCAAUAUUACGCGUA | -1.2 ± 0.12 | -1.41 ± 0.13
19 | CGCUAGCAAUAUUACGACGG | -0.226 ± 0.11 | 0.553 ± 0.14
20 | UUGAAGCAAUAUUACGAUUA | 0.283 ± 0.096 | -0.455 ± 0.096
21 | UUCAAGCAAUAUUACGAUUA | -0.129 ± 0.08 | 0.183 ± 0.081
22 | CCUAAGCAAUAUUACGAUAC | -3.63 ± 0.4 | -2.3 ± 0.27
23 | UUCUAGCAAUAUUACGUAGA | -3.73 ± 0.29 | -2.19 ± 0.25
24 | UCCCAGCAAUAUUACGAGGG | -3.14 ± 0.17 | -3.02 ± 0.21
25 | UGGAAGCAAUAUUACGGAUA | -0.862 ± 0.084 | -1.04 ± 0.088

Row | Sequence | self-splicing fitness (ln) (30 °C) | self-splicing fitness (ln) (37 °C)
26 | CUUGAGCAAUAUUACGAUGA | -1.49 ± 0.23 | -2.03 ± 0.28
27 | AAGAAGCAAUAUUACGGCUG | -0.496 ± 0.077 | -0.25 ± 0.12
28 | ACGUAGCAAUAUUACGCGAC | -3.16 ± 0.21 | -1.9 ± 0.22
29 | ACCCAGCAAUAUUACGUUUA | -1.57 ± 0.066 | -1.01 ± 0.072
30 | GCAAAGCAAUAUUACGAAGA | -1.88 ± 0.18 | -2.45 ± 0.23
31 | CUUGAGCAAUAUUACGAAGA | -2.53 ± 0.27 | -3.17 ± 0.37
32 | CCCUAGCAAUAUUACGUACU | -2.78 ± 0.14 | -2.65 ± 0.23
33 | CAUGAGCAAUAUUACGUUAG | -1.86 ± 0.081 | -1.11 ± 0.082
34 | AUAUAGCAAUAUUACGCAGA | -2.82 ± 0.31 | -1.42 ± 0.21
35 | UAAAAGCAAUAUUACGAGAC | -2.39 ± 0.28 | -2.29 ± 0.26
36 | ACAUAGCAAUAUUACGAUAG | -3.38 ± 0.19 | -1.36 ± 0.17
37 | AUCAAGCAAUAUUACGGACA | -0.967 ± 0.075 | -0.478 ± 0.093
38 | UCGAAGCAAUAUUACGCUCA | -2.11 ± 0.19 | -0.861 ± 0.23
39 | GCUUAGCAAUAUUACGGGCU | -2.79 ± 0.21 | -3.26 ± 0.23
40 | AUCCAGCAAUAUUACGACUA | -0.459 ± 0.097 | -0.0254 ± 0.084
41 | UGAUAGCAAUAUUACGUGAA | -3 ± 0.17 | -1.7 ± 0.16
42 | AUCAAGCAAUAUUACGUCGA | -1.36 ± 0.068 | -0.157 ± 0.068
43 | CACGAGCAAUAUUACGGGAG | -3.53 ± 0.21 | -2.37 ± 0.18
44 | AACGAGCAAUAUUACGAGAG | -3.41 ± 0.15 | -1.98 ± 0.16
45 | UAGAAGCAAUAUUACGUAGC | -3.74 ± 0.26 | -2.43 ± 0.23
46 | AAGGAGCAAUAUUACGACGG |  | -0.954 ± 0.16
47 | CGUGAGCAAUAUUACGUAAU | -3.22 ± 0.26 | -2.19 ± 0.25
48 | AUAUAGCAAUAUUACGAUGG | -3.07 ± 0.31 | -0.944 ± 0.26
49 | AGAUAGCAAUAUUACGUGUA | -2.9 ± 0.14 | -1.82 ± 0.12
50 | GUCCAGCAAUAUUACGCAGA | -3.39 ± 0.4 | -1.87 ± 0.22

Row | Sequence | self-splicing fitness (ln) (30 °C) | self-splicing fitness (ln) (37 °C)
51 | AAAGAGCAAUAUUACGUCAG | -4.01 ± 0.36 | -2.29 ± 0.32
52 | CGCAAGCAAUAUUACGGUCA | -0.699 ± 0.067 | 0.0685 ± 0.079
53 | UUUCAGCAAUAUUACGAUCG | -0.997 ± 0.099 | -0.152 ± 0.14
54 | CUUCAGCAAUAUUACGCCUG | -0.748 ± 0.074 | 0.268 ± 0.1
55 | AGAGAGCAAUAUUACGAACC | -2.98 ± 0.39 | -1.57 ± 0.38
56 | UCUAAGCAAUAUUACGUAUC | -4.13 ± 0.24 | -3.01 ± 0.21
57 | GGAUAGCAAUAUUACGCGAU | -3.65 ± 0.3 | -2.91 ± 0.47
58 | AGUAAGCAAUAUUACGUUCG | -1.92 ± 0.14 | -1.17 ± 0.17
59 | GGGUAGCAAUAUUACGUACU | -2.25 ± 0.4 | -1.43 ± 0.38
60 | UAUUAGCAAUAUUACGAAUG | -0.433 ± 0.082 | -0.322 ± 0.11
61 | CGCUAGCAAUAUUACGACCC | -0.616 ± 0.16 | -0.956 ± 0.45
62 | GGGUAGCAAUAUUACGCGAG | -1.85 ± 0.32 | -0.555 ± 0.18
63 | UUGAAGCAAUAUUACGUUCC |  | -2.79 ± 0.35
64 | GUUCAGCAAUAUUACGGGAG | -0.317 ± 0.077 | -0.683 ± 0.095
65 | UCCAAGCAAUAUUACGUUAC | -4.16 ± 0.26 | -3.2 ± 0.32
66 | CGGGAGCAAUAUUACGAAAU |  | -1.65 ± 0.44
67 | UCACAGCAAUAUUACGAAGG | -1.55 ± 0.097 | -0.755 ± 0.12
68 | UCUAAGCAAUAUUACGUACG | -0.481 ± 0.11 | 0.49 ± 0.13
69 | AUACAGCAAUAUUACGCAGC | -4.34 ± 0.45 | -1.87 ± 0.19
70 | GAUGAGCAAUAUUACGUACC | -0.53 ± 0.35 | -1.77 ± 0.44
71 | CGAAAGCAAUAUUACGAUGG | -0.519 ± 0.07 | 0.406 ± 0.1
72 | GGAGAGCAAUAUUACGGAUA | -4.36 ± 0.46 | -2.05 ± 0.24
73 | UGCGAGCAAUAUUACGCAGA | -3.13 ± 0.37 | -1.84 ± 0.38
74 | CUGUAGCAAUAUUACGAGCG | -0.681 ± 0.094 | 0.0625 ± 0.12
75 | UCGCAGCAAUAUUACGAUGA | -0.691 ± 0.072 | 0.0326 ± 0.081

Row | Sequence | self-splicing fitness (ln) (30 °C) | self-splicing fitness (ln) (37 °C)
76 | AAUAAGCAAUAUUACGGCAA | -0.158 ± 0.09 | -0.3 ± 0.12
77 | GGAGAGCAAUAUUACGAGUA | -3.36 ± 0.41 | -2.48 ± 0.32
78 | ACCUAGCAAUAUUACGACCG | -1.16 ± 0.13 | 0.144 ± 0.12
79 | UUGCAGCAAUAUUACGUCUA | -0.361 ± 0.11 | -0.0705 ± 0.11
80 | CCGCAGCAAUAUUACGUCCG | -0.393 ± 0.084 | -0.499 ± 0.09
81 | UCCCAGCAAUAUUACGGCCU | -2.43 ± 0.16 | -0.901 ± 0.17
82 | AACGAGCAAUAUUACGGGUC | -3.17 ± 0.22 | -1.65 ± 0.2
83 | GACCAGCAAUAUUACGCUAU | -1.28 ± 0.074 | 0.126 ± 0.082
84 | UGAUAGCAAUAUUACGCUCU | -1.41 ± 0.11 | 0.193 ± 0.15
85 | CUUAAGCAAUAUUACGAUUU | -4.53 ± 0.42 | -2.7 ± 0.24
86 | UGGUAGCAAUAUUACGUGCG | -0.612 ± 0.12 | -0.415 ± 0.15
87 | GUGAAGCAAUAUUACGGGUA | -0.994 ± 0.068 | -1.23 ± 0.1
88 | ACACAGCAAUAUUACGAGUA | -2.69 ± 0.12 | -0.889 ± 0.081
89 | AGUCAGCAAUAUUACGUCGU | -0.476 ± 0.049 | -0.105 ± 0.064
90 | CCGAAGCAAUAUUACGGAUU | -2.88 ± 0.27 | -3.15 ± 0.35
91 | CUCAAGCAAUAUUACGCGGC | -3.21 ± 0.25 | -3.15 ± 0.34
92 | GCAAAGCAAUAUUACGGGAA | -2.43 ± 0.1 | -0.474 ± 0.081
93 | AGUCAGCAAUAUUACGCCUC | -2.68 ± 0.32 | -1 ± 0.42
94 | GGGCAGCAAUAUUACGCGAC | -2.37 ± 0.13 | -2.17 ± 0.21
95 | GUCGAGCAAUAUUACGAGAC |  | 0.237 ± 0.43
96 | UCCUAGCAAUAUUACGACGG | -2.14 ± 0.13 | -0.657 ± 0.14
97 | GAUUAGCAAUAUUACGUCUC | -1.24 ± 0.33 | -0.965 ± 0.32
